The values that follow come from article PMC8184850, “Cryo-EM structure of TFIIH/Rad4–Rad23–Rad33 in damaged DNA opening in nucleotide excision repair” (Nature Communications, 2021).

Sequences and labels used below:
T1: Rad4–Rad23–Rad33 complex (yeast, UniProt P14736 1-754; P32628 1-398; Q04231 1-177)
T1 construct: Rad4 (XPC homologue), yeast; Rad23 (RAD23B homologue), yeast; Rad33 (CETN2 homologue), yeast; plasmid pETDuet-RAD33; also called Rad4–23–33; yeast homologue of XPC–RAD23B–CETN2; copies: + +
T1 sequence 1: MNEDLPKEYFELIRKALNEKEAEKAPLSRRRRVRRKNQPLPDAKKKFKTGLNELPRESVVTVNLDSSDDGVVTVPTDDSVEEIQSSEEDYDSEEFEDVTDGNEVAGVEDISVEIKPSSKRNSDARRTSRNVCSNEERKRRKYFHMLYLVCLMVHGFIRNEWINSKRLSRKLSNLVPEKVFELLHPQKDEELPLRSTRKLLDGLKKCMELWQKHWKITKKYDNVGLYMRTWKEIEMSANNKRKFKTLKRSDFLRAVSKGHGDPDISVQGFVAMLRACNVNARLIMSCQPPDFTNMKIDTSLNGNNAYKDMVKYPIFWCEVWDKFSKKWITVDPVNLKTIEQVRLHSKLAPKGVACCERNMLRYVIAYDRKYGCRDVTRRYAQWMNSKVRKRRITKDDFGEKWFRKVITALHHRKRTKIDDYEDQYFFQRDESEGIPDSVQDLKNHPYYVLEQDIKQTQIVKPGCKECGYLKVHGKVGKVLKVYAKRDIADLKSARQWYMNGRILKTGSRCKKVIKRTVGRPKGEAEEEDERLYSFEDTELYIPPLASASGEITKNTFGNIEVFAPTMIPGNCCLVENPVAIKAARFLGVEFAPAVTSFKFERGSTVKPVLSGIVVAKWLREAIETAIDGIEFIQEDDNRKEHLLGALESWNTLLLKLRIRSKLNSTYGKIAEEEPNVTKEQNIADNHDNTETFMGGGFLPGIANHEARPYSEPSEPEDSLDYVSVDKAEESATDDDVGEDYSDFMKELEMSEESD
T1 sequence 2: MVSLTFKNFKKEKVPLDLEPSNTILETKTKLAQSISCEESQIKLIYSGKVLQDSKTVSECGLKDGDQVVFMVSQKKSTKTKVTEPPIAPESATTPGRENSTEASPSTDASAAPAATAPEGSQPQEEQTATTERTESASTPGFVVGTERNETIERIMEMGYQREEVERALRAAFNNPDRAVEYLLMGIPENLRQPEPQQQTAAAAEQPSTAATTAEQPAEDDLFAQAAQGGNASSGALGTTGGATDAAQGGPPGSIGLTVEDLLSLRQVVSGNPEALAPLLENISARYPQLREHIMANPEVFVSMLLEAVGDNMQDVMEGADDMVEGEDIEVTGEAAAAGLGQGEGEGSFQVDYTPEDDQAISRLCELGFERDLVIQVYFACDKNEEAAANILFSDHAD
T1 sequence 3: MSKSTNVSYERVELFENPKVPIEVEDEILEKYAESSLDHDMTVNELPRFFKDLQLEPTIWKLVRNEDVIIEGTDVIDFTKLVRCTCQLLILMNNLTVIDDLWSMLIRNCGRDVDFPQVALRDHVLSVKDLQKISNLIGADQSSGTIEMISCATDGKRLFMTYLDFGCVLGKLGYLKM

T2: Rad3 (yeast, UniProt P06839 1-778)
T2 construct: Rad3 (XPD homologue), subunit of yeast coreTFIIH; Stood in the assays as part of coreTFIIH; also called yeast homologue of XPD; source: purified from yeast as a subunit of coreTFIIH
T2 sequence (looked up): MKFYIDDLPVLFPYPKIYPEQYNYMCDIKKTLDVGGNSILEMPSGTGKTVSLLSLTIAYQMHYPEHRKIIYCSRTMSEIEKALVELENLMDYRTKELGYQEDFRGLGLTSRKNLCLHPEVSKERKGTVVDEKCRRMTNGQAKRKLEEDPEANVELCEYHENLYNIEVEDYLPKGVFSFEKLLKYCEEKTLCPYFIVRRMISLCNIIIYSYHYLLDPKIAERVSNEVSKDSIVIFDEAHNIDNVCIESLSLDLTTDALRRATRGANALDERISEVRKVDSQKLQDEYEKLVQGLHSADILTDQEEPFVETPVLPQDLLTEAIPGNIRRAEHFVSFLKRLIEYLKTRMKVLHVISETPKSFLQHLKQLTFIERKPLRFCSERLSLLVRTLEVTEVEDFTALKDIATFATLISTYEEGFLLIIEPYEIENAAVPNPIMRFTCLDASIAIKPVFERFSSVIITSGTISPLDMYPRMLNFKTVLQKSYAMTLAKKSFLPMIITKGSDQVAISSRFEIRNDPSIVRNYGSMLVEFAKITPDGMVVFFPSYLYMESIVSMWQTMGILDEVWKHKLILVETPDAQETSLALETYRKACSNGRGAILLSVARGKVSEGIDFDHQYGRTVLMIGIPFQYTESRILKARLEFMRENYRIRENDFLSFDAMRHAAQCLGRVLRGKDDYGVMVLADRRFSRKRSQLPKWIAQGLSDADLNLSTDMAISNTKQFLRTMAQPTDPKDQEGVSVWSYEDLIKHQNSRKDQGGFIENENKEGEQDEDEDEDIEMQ

B1: Ssl2 (natural protein, Saccharomyces cerevisiae, UniProt Q00578 1-843, looked up)
chain: MTDVEGYQPKSKGKIFPDMGESFFSSDEDSPATDAEIDENYDDNRETSEGRGERDTGAMVTGLKKPRKKTKSSRHTAADSSMNQMDAKDKALLQDTNSDIPADFVPDSVSGMFRSHDFSYLRLRPDHASRPLWISPSDGRIILESFSPLAEQAQDFLVTIAEPISRPSHIHEYKITAYSLYAAVSVGLETDDIISVLDRLSKVPVAESIINFIKGATISYGKVKLVIKHNRYFVETTQADILQMLLNDSVIGPLRIDSDHQVQPPEDVLQQQLQQTAGKPATNVNPNDVEAVFSAVIGGDNEREEEDDDIDAVHSFEIANESVEVVKKRCQEIDYPVLEEYDFRNDHRNPDLDIDLKPSTQIRPYQEKSLSKMFGNGRARSGIIVLPCGAGKTLVGITAACTIKKSVIVLCTSSVSVMQWRQQFLQWCTLQPENCAVFTSDNKEMFQTESGLVVSTYSMVANTRNRSHDSQKVMDFLTGREWGFIILDEVHVVPAAMFRRVVSTIAAHAKLGLTATLVREDDKIGDLNFLIGPKLYEANWMELSQKGHIANVQCAEVWCPMTAEFYQEYLRETARKRMLLYIMNPTKFQACQFLIQYHERRGDKIIVFSDNVYALQEYALKMGKPFIYGSTPQQERMNILQNFQYNDQINTIFLSKVGDTSIDLPEATCLIQISSHYGSRRQEAQRLGRILRAKRRNDEGFNAFFYSLVSKDTQEMYYSTKRQAFLVDQGYAFKVITHLHGMENIPNLAYASPRERRELLQEVLLKNEEAAGIEVGDDADNSVGRGSNGHKRFKSKAVRGEGSLSGLAGGEDMAYMEYSTNKNKELKEHHPLIRKMYYKNLKK
notes: Ssl2 (XPB homologue), subunit of yeast coreTFIIH; C-Ssl2 549–776, C-terminal region 771–843 as printed; Stood in the assays as part of coreTFIIH; also called yeast homologue of XPB; source: purified from yeast as a subunit of coreTFIIH
B2: Tfb2 (natural protein, yeast, UniProt Q02939 1-513, looked up)
chain: MSDYSLKHSVTQYLEEIPQQVQNRLYTSPATCLAIYRILPPLAKFFIMAMVFNENEVPLLDLDKWVNSNGKLQFQNAIKSMKSLHLLIPNKSSGTLMINLNPTFKISLRNALTGGEVQNSFGVVVEENVVSLDLLDEYSANKWETILHFMVGTPLAKIPSEKVLNLLKHSKLMEEVNSTGEFKITNEGFQFLLQEINSQLWTLLLQYLKMIETSKMDLVDVLHFIFMLGALEVGKAYKIDALSETQRIMLQDMRDYGLVFQKHSNDSIFYPTKLALMLTSDTKTIRSASNAMDSVLRQNREEPSVNEDGANGKSTTDITTSDDLNKAGLKNQDIPDGSLIVETNFKIYSYSNSPLQIAVLSLFVHLKARFVNMVLGQITRESIRRALTNGITADQIIAYLETHAHPQMRRLAEEKLEKKLELDPNCKEPLQVLPPTVVDQIRLWQLELDRVITYEGSLYSDFETSQEYNLLSKYAQDIGVLLWKDDKKKKFFISKEGNSQVLDFAKRKLKKKQ
notes: Tfb2 (p52 homologue), subunit of yeast coreTFIIH; Tfb2C 412–513 as printed; Stood in the assays as part of coreTFIIH; also called yeast homologue of p52; source: purified from yeast as a subunit of coreTFIIH
B3: Ssl1 (natural protein, yeast, UniProt Q04673 1-461, looked up)
chain: MAPVVISESEEDEDRVAITRRTKRQVHFDGEGDDRVDQQQQQHSSSHRDRDKHVQRKKKKRLSNRNLQGSNGGYAWEDEIKRSWDLVKVDDEGDMASLVASIVEARKKRTAKKNITPYQRGIIRSLILTLDCSEAMLEKDLRPNRHAMIIQYAIDFVHEFFDQNPISQMGIIIMRNGLAQLVSQVSGNPQDHIDALKSIRKQEPKGNPSLQNALEMARGLLLPVPAHCTREVLIVFGSLSTTDPGDIHQTIDSLVSEKIRVKVLGLSAQVAICKELCKATNYGDESFYKILLDETHLKELFNEAVTPLPVNKINKGFTLVKMGFPTRIFEDTPTFCSCHSKLVYGGYFCPNCHSKVCSLPTVCPCCDLMLILSTHLARSYHHLMPLKTFAEVPTTEKFRSEDCFSCQSRFPILKNHKNGKLLTSSRYRCEDCKQEFCVDCDVFIHEILHNCPGCESKPVIT
notes: Ssl1 (p44 homologue), subunit of yeast coreTFIIH; Stood in the assays as part of coreTFIIH; also called yeast homologue of p44; source: purified from yeast as a subunit of coreTFIIH

What all share (conditions): both partners purified
In one test the target is T1, Rad4–Rad23–Rad33 complex. As to the kind of experiment: cross-linking; XL-MS: TFIIH/Rad4–Rad23–Rad33 assembled on −24/+24 AAF-DNA, 1 mg/mL in 20 mM HEPES pH 7.6, 300 mM potassium acetate, 5% glycerol, 5 mM DTT; 6 mM DSBU on ice 2 h; MeroX, FDR <1%.
The test “Ssl2” addresses B1. As to the kind of experiment: cryo-EM structure; coreTFIIH and Rad4–Rad23–Rad33 on −24*/+24 AAF-DNA with ATP, glycerol gradient with glutaraldehyde; Map 1 3.86 Å (TFIIH), Map 2 9.2 Å, Map 3 7.9 Å; Rad4, Rad33 and the Tfb1 PH domain placed by rigid-body docking of known structures or homology models.
The target of the next test is T2, Rad3. The description is as above.

In the case of B1, the binding result with Rad4–Rad23–Rad33 complex is reported as “binds”.

With B2, the binding result in the test with Ssl2 is on record as “binds”.

Turning to B3, the binding result with Rad3 is reported as “binds”.
